Assay results as given in patent publication US20240368668A1, “SUBSTRATES AND BIOMARKERS OF ADAMTS7” (The Broad Institute, Inc., priority 2021, published 2024).
Square brackets hold non-standard residues; d marks the D form. Ends that are not written are not given here. Met(O) = CS(=O)CC[C@H](N)C(=O)O

Biological target: T1, mouse ADAMTS7 (Mus musculus, UniProt Q68SA9)
T1 construct: Full-length mouse Adamts7 1-1857 (Uniprot Q68SA9, WT or E373Q catalytic mutant); expressed in transfected cells; host or cells: Human Coronary Artery Smooth Muscle Cells (HCA-SMC, Lonza), adenovirus 50 MOI
T1 sequence (Q68SA9 221-1657): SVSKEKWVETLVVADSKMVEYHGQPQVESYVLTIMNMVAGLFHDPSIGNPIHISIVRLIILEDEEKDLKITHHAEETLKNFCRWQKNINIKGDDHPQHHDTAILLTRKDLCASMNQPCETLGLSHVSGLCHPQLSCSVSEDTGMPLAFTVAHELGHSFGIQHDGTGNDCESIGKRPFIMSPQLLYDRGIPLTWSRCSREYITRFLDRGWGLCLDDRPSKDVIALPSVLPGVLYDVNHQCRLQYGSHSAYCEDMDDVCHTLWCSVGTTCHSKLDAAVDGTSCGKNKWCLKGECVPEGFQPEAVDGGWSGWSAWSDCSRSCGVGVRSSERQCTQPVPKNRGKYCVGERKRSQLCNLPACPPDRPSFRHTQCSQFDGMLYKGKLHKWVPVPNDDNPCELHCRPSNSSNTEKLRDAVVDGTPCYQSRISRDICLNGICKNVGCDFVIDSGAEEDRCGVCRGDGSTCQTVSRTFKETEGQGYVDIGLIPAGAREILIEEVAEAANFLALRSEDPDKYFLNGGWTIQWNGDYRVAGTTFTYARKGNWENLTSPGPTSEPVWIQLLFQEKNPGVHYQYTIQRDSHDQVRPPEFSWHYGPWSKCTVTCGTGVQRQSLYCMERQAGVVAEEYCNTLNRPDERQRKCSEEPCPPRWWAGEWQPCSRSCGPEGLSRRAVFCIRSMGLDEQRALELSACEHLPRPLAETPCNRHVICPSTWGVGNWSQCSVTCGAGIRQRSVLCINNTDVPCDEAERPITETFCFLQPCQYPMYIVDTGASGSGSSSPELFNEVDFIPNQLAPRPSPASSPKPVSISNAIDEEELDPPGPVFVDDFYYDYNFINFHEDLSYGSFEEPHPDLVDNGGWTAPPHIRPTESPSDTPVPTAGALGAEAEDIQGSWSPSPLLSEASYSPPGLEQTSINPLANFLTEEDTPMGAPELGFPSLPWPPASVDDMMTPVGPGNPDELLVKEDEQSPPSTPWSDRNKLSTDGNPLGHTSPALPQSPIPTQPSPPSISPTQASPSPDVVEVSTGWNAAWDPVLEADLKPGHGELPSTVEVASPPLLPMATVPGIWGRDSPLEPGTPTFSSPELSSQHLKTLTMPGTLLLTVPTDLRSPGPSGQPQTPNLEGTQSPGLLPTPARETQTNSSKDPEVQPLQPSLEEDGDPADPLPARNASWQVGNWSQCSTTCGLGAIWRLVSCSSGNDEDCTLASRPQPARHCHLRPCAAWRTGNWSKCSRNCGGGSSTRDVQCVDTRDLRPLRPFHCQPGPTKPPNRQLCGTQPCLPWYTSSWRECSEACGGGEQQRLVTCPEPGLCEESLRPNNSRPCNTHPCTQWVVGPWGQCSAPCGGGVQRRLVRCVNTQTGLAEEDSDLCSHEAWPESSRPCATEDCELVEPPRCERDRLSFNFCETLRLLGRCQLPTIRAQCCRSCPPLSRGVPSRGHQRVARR
Test: TMT10 TAILS N-terminomics, SMC2 experiment (process replicates, trypsin/AspN digest)
Assay type: cell-based
Conditions: for logFC.mWT.over.Luc: SMC2_TAILS HC; for logFC.mWT.over.Lux: ADAMTS7 WT over luciferase
Method in brief: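 Full-length mouse ADAMTS7 (WT or E373Q mutant, C-terminal 3xFLAG) or luciferase was transduced via adenovirus, 50 MOI, into HCA-SMC (SMC1, SMC2) or HUVEC. SMC1: pooled media, technical triplicates 400 ug; SMC2: process triplicates 300 ug; HUVEC: process triplicates 200 ug, bFGF2 10 ng/ml.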

[1] = log fold change of N-terminal peptide, Ad-mADAMTS7 WT over Luc

Row | Substance | logFC.mWT.over.Luc (log fold change, mWT over Luc) | logFC.mWT.over.Luc [1] | logFC.mWT.over.Lux (log fold change)
1 | COL1A2_80 (QYDGKGVGLGPGPMGLMGPR; listed as Homo sapiens) | 0.82 | – | –
2 | COL1A2_270 (VGNAGPAGPAGPR; listed as Homo sapiens) | 3.42 | – | –
3 | COL1A2_305 (LTGAKGAAGLPGVAGAPGLPGPR; listed as Homo sapiens) | 1.60 | – | –
4 | COL1A2_866 (LLGAPGILGLPGSR; listed as Homo sapiens) | 2.76 | – | –
5 | COL1A2_1028 (LQGLPGIAGHHGDQGAPGSVGPAGPR; listed as Homo sapiens) | 1.73 | – | –
6 | COL4A2_71 (YNGPPGLQGFPGLQGR; listed as Homo sapiens) | 1.38 | – | –
7 | COL18A1_1505 (LQPPVVQLHDSNPYPR; listed as Homo sapiens) | 1.46 | – | –
8 | LOXL2_45 (HQPQAPANVAKIQLR; listed as Homo sapiens) | – | 2.62 | –
9 | LTBP2_79 (VAGLQPVER; listed as Homo sapiens) | – | 1.54 | –
10 | LTBP2_502 (LVENSVETRPPPWLPASPGHSLW; listed as Homo sapiens) | – | 2.66 | –
11 | LTBP3_103 (LTGSGFR; listed as Homo sapiens) | – | 4.80 | –
12 | LTBP3_208 (FLVPLGPGQISA; listed as Homo sapiens) | – | 1.51 | –
13 | MAP4_816 (VASTGPSSR; listed as Homo sapiens) | – | 2.53 | –
14 | MMP1_100 (FVLTEGNPR; listed as Homo sapiens) | – | 2.35 | –
15 | NBEA_1892 (LEKVAPLLR; listed as Homo sapiens) | – | 2.04 | –
16 | NID2_291 (HSSVPLGR; listed as Homo sapiens) | – | 3.16 | –
17 | NID2_951 (YAYPGAR; listed as Homo sapiens) | – | 2.73 | –
18 | PAK4_141 (HSEAGGGSG; listed as Homo sapiens) | – | 2.47 | –
19 | PLIN3_75 (VSGAQPILSKL; listed as Homo sapiens) | – | 2.32 | –
20 | POSTN_727 (IITGPEIKYTR; listed as Homo sapiens) | – | 2.51 | –
21 | PPP1R18_295 (LSETLTR; listed as Homo sapiens) | – | 2.35 | –
22 | PTPRF_1859 (MRYEGVVDMFQTVKTLR; listed as Homo sapiens) | – | 2.51 | –
23 | QSOX1_210 (HKGVAVR; listed as Homo sapiens) | – | 1.20 | –
24 | SERBP1_56 (QAAAQTNSNAAGKQLR; listed as Homo sapiens) | – | – | 3.97
25 | SHC2_267 (VAKDPINQRACHIL; listed as Homo sapiens) | – | 1.89 | –
26 | SRGN_59 (LLPGESNKIPR; listed as Homo sapiens) | – | 3.71 | 4.23
27 | THBS2_290 (LSENLKR; listed as Homo sapiens) | – | – | 4.65
28 | TNS1_236 (QEGLAGYQR; listed as Homo sapiens) | – | 1.49 | –
29 | TRGC2_86 (HRCIVRHENNK; listed as Homo sapiens) | – | 3.16 | –
30 | VIM_333 (LKGTNESLER; listed as Homo sapiens) | – | 3.75 | 4.37

Next, values leading:

Row | logFC.mWT.over.Luc (log fold change, mWT over Luc) | logFC.mWT.over.Luc [1] | logFC.mWT.over.Lux (log fold change) | Substance
31 | 2.03 | – | – | COL1A2_630 (VGTAGPSGPSGLPGER; listed as Homo sapiens)
32 | 2.71 | – | – | COL1A2_960 (AGAPGPHGPVGPAGKHGNR; listed as Homo sapiens)
33 | – | 1.72 | – | LOXL1_218 (AVASAGVIYPYQPR; listed as Homo sapiens)
34 | – | 2.49 | – | LTBP2_250 (SAAGEGTLAR; listed as Homo sapiens)
35 | – | 2.94 | – | LTBP2_290 (QHVGLSR; listed as Homo sapiens)
36 | – | 1.68 | – | MAP4_815 (AVASTGPSSR; listed as Homo sapiens)
37 | – | 1.08 | – | MMP1_185 (FQPGPGIGG; listed as Homo sapiens)
38 | – | 2.47 | – | NID1_360 (FHQQHPQVI; listed as Homo sapiens)
39 | – | 2.03 | – | SPOCK1_27 (LAGGAGPNHGNFL; listed as Homo sapiens)
40 | – | 4.08 | – | TNPO2_744 (VQ[Met(O)]VLNNLVEII[code n]RP[code n]TPKTLLE; listed as Homo sapiens)
41 | – | 3.15 | – | TTN_5975 (VKEPPVEFTKPL; listed as Homo sapiens)
42 | – | 3.22 | – | VAT1_42 (AASPPLLR; listed as Homo sapiens)
43 | – | 3.06 | 2.63 | VIM_314 (QESTEYR; listed as Homo sapiens)
